Test [1] addresses T1, human CD47 (human, UniProt Q08722).
T1 construct: CD47, human; the methods are in the Supplementary section; also called integrin-associated protein
Briefly: not stated; binding affinity of IgG2σ mAbs to human and cynomolgus monkey CD47; method is described only in the Supplementary section.

Test [2] concerns the target T2, cynomolgus monkey CD47 (Macaca fascicularis, UniProt A0A2K5X4I2).
T2 construct: CD47, cynomolgus monkey; also called cyno CD47
The description is as above.

The target of test [3] is T3, cynomolgus monkey CD47 (Macaca fascicularis, UniProt A0A2K5X4I2).
T3 construct: CD47, cynomolgus monkey; also called cyno CD47
Briefly: not stated; binding affinity of IgG2σ mAbs to human and cyno CD47; the method stands in the Supplementary Information, not shown.

Test [4] deals with T4, human CD47 (human, UniProt Q08722).
T4 construct: CD47, human; The crystal structures used the human CD47 extracellular domain with a C15G mutation; also called integrin-associated protein
The description is as above.

B1: IgG2σ C47B161 (antibody, V domains shown)
VH: QVQLVQSGAEVKKPGASVKVSCKASGYTFTDYNMHWVRQAPGQRLEWMGDIYPYNGGTGYNQKFKGRVTITRDTSASTAYMELSSLRSEDTAVYYCARGGWHAMDSWGQGTLVTVSS
VL: DIVMTQSPLSLPVTPGEPASISCRSRQSIVHTNRYTYLAWYLQKPGQSPQLLIYKVSNRFSGVPDRFSGSGSGTDFTLKISRVEAEDVGVYYCFQGSHVPYTFGGGTKLEIK
notes: Human IgG2σ (effector function silent Fc)
In general, Kd refers to the free concentration of one partner at which half of the binding sites on the other are occupied at equilibrium, for simple one-to-one binding. In the case of B1, the Kd is 2870 pM with human CD47 [1] and 2960 pM with cynomolgus monkey CD47 [2].

B2: IgG2σ C47B222 (antibody, V domains shown)
VH: EVQLVQSGAEVKKPGESLKISCKGSGYSFTDYWIGWVRQMPGKGLEWMGIIYPGDSDTRYSPSFQGQVTISADKSISTAYLQWSSLKASDTAVYYCARVGRFASHQLDYWGQGTLVTVSS
VL: EIVLTQSPATLSLSPGERATLSCRASQSVNNRLAWYQQKPGQAPRLLIHWASTRAIGIPARFSGSGSGTDFTLTISSLEPEDFAVYYCQQGASWPFTFGQGTKVEIK
notes: as for B1
For the molecule B2, the Kd is 1120 pM in the test with human CD47 [1] and 840 pM in the test with cynomolgus monkey CD47 [2].

B3: anti-CD47 mAb B6H12.2 engineered with the human IgG2σ Fc (antibody, V domains shown)
VH: EVKLVESGGDLVKPGGSLKLSCAASGFTFSGYGMSWVRQTPDKRLEWVATITSGGTYTYYPDSVKGRFTISRDNAKNTLYLQIDSLKSEDTAIYFCARSLAGNAMDYWGQGTSVTVSS
VL: DIVMTQSPATLSVTPGDRVSLSCRASQTISDYLHWYQQKSHESPRLLIKFASQSISGIPSRFSGSGSGSDFTLSINSVEPEDVGVYYCQNGHGFPRTFGGGTKLEIK
notes: heavy chain of B6H12.2 with a human IgG2σ Fc; light chain of B6H12.2; also called IgG2σ B6H12.2
As for B3, the figures for the Kd in the test with cynomolgus monkey CD47 [3] and in the test with human CD47 [4] were 600 pM and 500 pM, respectively.

The values are drawn from PMC5386341 (Blood Cancer Journal, 2017).
